According to the supplement of paper PMC10724198:
± gives the standard deviation of the averaged measurements.

What follows are sequences tested on Saccharomyces cerevisiae (assay: protein stability index of tFT-peptide fusion (C-terminal peptide) (PSI (0-1 scale)); higher = more stable (slower turnover)). Conditions: genetic background: wild type; temperature: 30 C.
Protocol: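 MPS profiling in S. cerevisiae of the tFT-X12 degron library: putative degron peptides plus stable controls, 12 aa, fused to the C-terminus of a sfGFP-mCherry timer. Cells are FACS-sorted into 8 mCherry/sfGFP bins and deep-sequenced. PSI runs from 0 (unstable) to 1 (stable). Backgrounds are wild type, das1Δ and doa10Δ at 30 °C, and wild type, das1Δ, cdc34-1 and cdc53-1 at 37 °C; 2-3 technical replicates each.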
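Further: PSI is a weighted mean of sequencing reads over stability bins, variants kept only with over 10 reads, mCherry proximal and sfGFP distal, peptide attached via GGGS linker.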

Row | Sequence | protein stability index
1 | FSAVVCPTVFLC | 0.0973 ± 0.022
2 | FSCWLFMLCVFL | 0.316 ± 0.023
3 | FSIFFFLLPSSL | 0.441 ± 0.025
4 | FSLFYYIHLSVA | 0.104 ± 0.028
5 | FSLGGVPYVFFV | 0.221 ± 0.029
6 | FSLWSRRSITVY | 0.0899 ± 0.026
7 | FSPSHMLRIFCY | 0.212 ± 0.0047
8 | FSRPTYYFIRHS | 0.272 ± 0.058
9 | FSSRVFLIVGIY | 0.27 ± 0.023
10 | FVCFSFFFPFLL | 0.148 ± 0.016
11 | FVFCTCSFFFLW | 0.393 ± 0.029
12 | FVSGRFLFFFVL | 0.144 ± 0.018
13 | FVSSLLPLLTLL | 0.141 ± 0.012
14 | FVVVGVLFLCVG | 0.277 ± 0.03
15 | FWFSFSFLCHSY | 0.38 ± 0.0095
16 | FYFLSFLLLLSP | 0.156 ± 0.035
17 | FYGVRFLVCVSA | 0.105 ± 0.03
18 | GAWLAVCVVREG | 0.405 ± 0.021
19 | GCILSLCYAVST | 0.318 ± 0.018
20 | GCVTFVLISFCA | 0.208 ± 0.027

Row | Sequence | protein stability index
21 | GELVLVMYGIWV | 0.277 ± 0.033
22 | GFESTCSLLCVF | 0.306 ± 0.026
23 | GFFFFHGLCFFV | 0.355 ± 0.023
24 | GFFFWTMCFWVV | 0.194 ± 0.02
25 | GFLVPSSPRCHQ | 0.681 ± 0.047
26 | GFSPLFVLVFGV | 0.311 ± 0.013
27 | GGGSASGWRAAA | 0.39 ± 0.022
28 | GGKTLSIFLRIS | 0.159 ± 0.013
29 | GGLVVYVWGRWS | 0.377 ± 0.015
30 | GGLWRRLCLGVG | 0.311 ± 0.016
31 | GGVCVRMECWMG | 0.496 ± 0.034
32 | GGVVGRPWWYVG | 0.301 ± 0.015
33 | GIFVRIVCIDVA | 0.165 ± 0.021
34 | GINYSNKKILVN | 0.273 ± 0.033
35 | GLCSGTGARWLV | 0.516 ± 0.0084
36 | GLPRASPLPIPV | 0.443 ± 0.016
37 | GLRLRCPLLLSL | 0.324 ± 0.013
38 | GLSGFLLLIVLY | 0.228 ± 0.035
39 | GLWLCRGLVRAW | 0.289 ± 0.021
40 | GPFGVGALVCCM | 0.351 ± 0.017

Row | Sequence | protein stability index
41 | GPNWCSVCQGVG | 0.426 ± 0.013
42 | GPPPAPSPTPSP | 0.687 ± 0.015
43 | GPTLLVSRIAVI | 0.162 ± 0.021
44 | GQLIYQHIFILG | 0.353 ± 0.021
45 | GRPYHLCLFSCF | 0.343 ± 0.027
46 | GRRLGLLNLLSY | 0.305 ± 0.028
47 | GRSVGVTMFKNG | 0.206 ± 0.014
48 | GRWLYSACVALN | 0.196 ± 0.026
49 | GSRVICMVVATM | 0.436 ± 0.02
50 | GTRREFVILYLF | 0.133 ± 0.035
51 | GVFISFFFVFRF | 0.237 ± 0.025
52 | GVFRYKLILRKM | 0.272 ± 0.014
53 | GVLHSKGPWFSG | 0.665 ± 0.014
54 | GVLLLGSYQWVG | 0.373 ± 0.025
55 | GVWLRAVRGFGV | 0.6542 ± 0.0058
56 | GWCLGFWCLLVC | 0.0537 ± 0.018
57 | GWVVWLTGCLVF | 0.443 ± 0.017
58 | GYRGRITRLVNG | 0.168 ± 0.021
59 | GYRYMWLWRLSA | 0.143 ± 0.032
60 | HCLGWCFSRLSS | 0.206 ± 0.027

Same assay, conditions: genetic background: wild type; temperature: 37 C

Row | Sequence | protein stability index
61 | FSAVVCPTVFLC | 0.0951 ± 0.0051
62 | FSCWLFMLCVFL | 0.454 ± 0.025
63 | FSIFFFLLPSSL | 0.5593 ± 0.0021
64 | FSLFYYIHLSVA | 0.197 ± 0.0021
65 | FSLGGVPYVFFV | 0.4579 ± 0.0017
66 | FSLWSRRSITVY | 0.0886 ± 0.049
67 | FSPSHMLRIFCY | 0.282 ± 0.0028
68 | FSRPTYYFIRHS | 0.475 ± 0.048
69 | FSSRVFLIVGIY | 0.4874 ± 0.0027
70 | FVCFSFFFPFLL | 0.238 ± 0.0042
71 | FVFCTCSFFFLW | 0.5103 ± 0.00052
72 | FVSGRFLFFFVL | 0.208 ± 0.0074
73 | FVSSLLPLLTLL | 0.218 ± 0.0057
74 | FVVVGVLFLCVG | 0.442 ± 0.007
75 | FWFSFSFLCHSY | 0.407 ± 0.02
76 | FYFLSFLLLLSP | 0.245 ± 0.024
77 | FYGVRFLVCVSA | 0.096 ± 0.0045
78 | GAWLAVCVVREG | 0.5526 ± 0.0021
79 | GCILSLCYAVST | 0.523 ± 0.013
80 | GCVTFVLISFCA | 0.386 ± 0.012

Row | Sequence | protein stability index
81 | GELVLVMYGIWV | 0.458 ± 0.0063
82 | GFESTCSLLCVF | 0.407 ± 0.013
83 | GFFFFHGLCFFV | 0.526 ± 0.02
84 | GFFFWTMCFWVV | 0.322 ± 0.026
85 | GFLVPSSPRCHQ | 0.691 ± 0.012
86 | GFSPLFVLVFGV | 0.489 ± 0.011
87 | GGGSASGWRAAA | 0.639 ± 0.0072
88 | GGKTLSIFLRIS | 0.295 ± 0.017
89 | GGLVVYVWGRWS | 0.573 ± 0.023
90 | GGLWRRLCLGVG | 0.453 ± 0.016
91 | GGVCVRMECWMG | 0.5864 ± 0.0051
92 | GGVVGRPWWYVG | 0.605 ± 0.017
93 | GIFVRIVCIDVA | 0.2851 ± 0.0006
94 | GINYSNKKILVN | 0.57 ± 0.0072
95 | GLCSGTGARWLV | 0.701 ± 0.016
96 | GLPRASPLPIPV | 0.57 ± 0.0065
97 | GLRLRCPLLLSL | 0.425 ± 0.0045
98 | GLSGFLLLIVLY | 0.35509 ± 0.00019
99 | GLWLCRGLVRAW | 0.438 ± 0.014
100 | GPFGVGALVCCM | 0.4844 ± 0.00066

Row | Sequence | protein stability index
101 | GPNWCSVCQGVG | 0.4733 ± 0.00063
102 | GPPPAPSPTPSP | 0.699 ± 0.02
103 | GPTLLVSRIAVI | 0.291 ± 0.015
104 | GQLIYQHIFILG | 0.5677 ± 0.0052
105 | GRPYHLCLFSCF | 0.577 ± 0.016
106 | GRRLGLLNLLSY | 0.601 ± 0.027
107 | GRSVGVTMFKNG | 0.479 ± 0.016
108 | GRWLYSACVALN | 0.4027 ± 0.0021
109 | GSRVICMVVATM | 0.582 ± 0.0029
110 | GTRREFVILYLF | 0.101 ± 0.019
111 | GVFISFFFVFRF | 0.309 ± 0.033
112 | GVFRYKLILRKM | 0.435 ± 0.012
113 | GVLHSKGPWFSG | 0.72815 ± 0.0004
114 | GVLLLGSYQWVG | 0.317 ± 0.0059
115 | GVWLRAVRGFGV | 0.7403 ± 0.0064
116 | GWCLGFWCLLVC | 0.068 ± 0.014
117 | GWVVWLTGCLVF | 0.621 ± 0.028
118 | GYRGRITRLVNG | 0.369 ± 0.00097
119 | GYRYMWLWRLSA | 0.235 ± 0.013
120 | HCLGWCFSRLSS | 0.4302 ± 0.0015
